# Values of other authors in patent publication US20060289354A1, “Method and composition to control the growth of microorganisms in aqueous systems and on substrates” (Buckman Laboratories International, Inc., priority 2005, published 2006).
# Like-named read-outs stand apart in the source and are kept apart here.
# Details: for shelf life: original sealed package
substance,measurement,setting,value
lactoperoxidase [LP],effect of exposure to elevated temperature,>65° C. for short time (10 minutes),denaturation of the protein and loss of the activity
same,shelf life,8° C.,≥ 2 years
same,shelf life,20° C.,at least 1 year
same,optimal pH,typical commercial form,5.0-6.5
